Values of other authors as cited in PMC8322311.
Like-named read-outs stand apart in the source and are kept apart here.

Key:
SHH (Homo sapiens) [1] = molecular target: SHH (Homo sapiens) (UniProt Q15465)
SHH (Homo sapiens) [2] = molecular target: SHH (Homo sapiens) (UniProt Q15465); remark: listed apart in the source

Glypican-3 (from UniProt P51654)
Kd (SHH (Homo sapiens) [1]): 32 nM

HHIP (from UniProt Q96QV1)
Kd (SHH (Homo sapiens) [2]): 6 nM
